This is an account of results in patent publication US20130224202A1.

Assay [1] concerns the target human prominin-1 expressed in E. coli as a 6*HIS fusion protein (human) (UniProt O43490). Put plainly: ELISA on plate-coated human prominin-1, hybridoma secreted antibody diluted at 1:2000.
The target is the same in assay [2]. As to the kind of experiment: phage ELISA on plate-coated human prominin-1, HRP-conjugated anti-M13.

B1: monoclonal antibody produced by Hybridoma Clone 7 (antibody, V domains shown)
VH: EVKLVESGPELKKPGETVKISCKASGYTFTDYSMHWVNQAPGKGLKWMGWINTETGEPSYADDFKGRFAFSLETSASTAYLQINNLKNEDTATYFCATDYGDYFDYWGQGTTLTVSS
VL: DIVLSQSPAIMSASPGEKVTISCSASSSVSYMYWYQQKPGSSPKPWIYRTSNLASGVPARFSGSGSGTSYSLTISSMEAEDAATYYCQQYHSYPPTFGAGTKLELK
Consider B1, for which the A450 in assay [1] is 1.9 A450.

B2: scFv clone No. 5, displayed on phage (scFv)
scFv: AQAAELDIVLTQSPAIMSASPGEKVTISCSASSSVSYMYWYQQKPGSSPKPWIYRTSNLASGVPARFSGSGSGTSYSLTISSMEAEDAATYYCQQYHSYPPTFGAGTKLELKSSGGGGSGGGGGGSSRSSLEVKLVESGPELKKPGETVKISCKASGYTFTDYSMHWVNQAPGKGLKWMGWINTETGEPSYADDFKGRFAFSLETSASTAYLQINNLKNEDTATYFCATDYGDYFDYWGQGTTLTVSSAKTTPPSVTSGQAGQ
In assay [2], B2 yielded an A450 of 1.3 A450.

B3: scFv clone No. 10, displayed on phage (scFv)
scFv: AQAAELDIVLSQSPAIMSASPGEKVTISCSASSSVSYMYWYQQKPGSPPKPWIYRTSNLASGVPARFSGSGSGTSYSLTISSMEAEDAATYYCQQYHSYPPTFGAGTKLELKSSGGGGSGGGGGGSSRSSLEVKLVESGPELKKPGETVKISCKASGYTFTDYSMHWVNQAPGKGLKWMGWINTETGEPSYADDFKGRFAFSLETSASTAYLQINNLKNEDTATYFCATDCGDYFDYWGQGTTLTVSSAKTTPPSVTSGQAGQ
In assay [2], B3 came in with an A450 of 1.2 A450.

B4: scFv clone No. 6, displayed on phage (scFv)
scFv: AQAAELDIVLTQSPAIMSASPGEKVTISCSASSSVSYMYWYQQKPGSSPKPWIYRPSNLASGVPARFSGSGSGTSYSLTISSMEAEDAATYYCQQYHSYPPTFGAGTKLELKSSGGGGSGGGGGGSSRSSPEVMLVESGPELKKPGETVKISCKASGYTFTDYSMHWVNQAPGKGLKWMGWINTETGEPSYADDFKGRFAFSLETSASTAYLQINNLKNEDTATYFCATDYGDYFDYWGQGTTLTVSSAKTTPPSVTSGQAGQ
In turn, B4 yielded an A450 in assay [2] of 1.3 A450.

B5: scFv clone No. 11, displayed on phage (scFv)
scFv: AQAAELDIVLSQSPAIMSASPGEKVTISCSASSSVSYMYWYQQKPGSSPKPWIYRTSNLASGVPARFSGSGSGTSYSLTISSMEAEDAATYYCQQYHSYPPTFGAGTKLELKSSGGGGSGGGGGGSSRSSLEVKLVESGPELKKPGETVKISCKASGYTFTDYSMHWVNQAPGKGLKWMGWINTETGEPSYADDFKGRFAFSLETSASTAYLQINNLKNEDTATYFCATDYGDYFDYWGQGTTLTVSSAKTTPPSVTSGQAGQ
The molecule B5 gave an A450 in assay [2] of 1.4 A450.

B6: scFv clone No. 8, displayed on phage (scFv)
scFv: AQAAELDIVLTQSPAIMSASPGEKVTISCSASSSVSYMYWYQQKPGSSPKPWIYRPSNLASGVPARFSGSGSGTSYSLTISSMEAEDAATYYCQQYHSYPPTFGAGTKLELKSSGGGGSGGGGGGSSRSSLEVHLVESGPELKKPGETVKISCKASGYTFTDYSMHWVNQAPGKGLKWMGWINTETGEPSYADDFKGRFAFSLETSASTAYLQINNLKNEDTATYFCATDYGDYFDYWGQGTTLTVSSAKTTPPSVTSGQAGQ
B6 displayed an A450 in assay [2] of 1 A450.

B7: scFv clone No. 23, displayed on phage (scFv)
scFv: AQAAELDIVLTQSPAIMSASPGEKVTISCSASSSVSYMYWYQQKPGSSPKPWIYRPSNLASGVPARFSGSGSGTSYSLTISSMEAEDAATYYCQQYHSYPPTFGAGTKLELKSSGGGGSGGGGGGSSRSSLEVQLVESGPELKKPGETVKISCKASGYTFTDYSMHWVNQAPGKGLKWMGWINTETGEPSYADDFKGRFAFSLETSASTAYLQINNLKNEDTATYFCATDYGDYFDYWGQGTTLTVSSAKTTAPSVTSGQAGQ
For B7, the A450 in assay [2] is 1.1 A450.

B8: scFv clone No. 22, displayed on phage (scFv)
scFv: AQAAELDIVLTQSPAIMSASPGEKVTISCSASSSVSYMYWYQQKPGSSPKPWIYRPSNLASGVPARFSGSGSGTSYSLTISSMEAEDAATYYCQQYHSYPPTFGAGTKLELKSSGDGGSGGGGGGSSRSSLEVKLVESGPELKKPGETVKISCKASGYTFTDYSMHWVNQAPGKGLKWMGWINTETGEPSYADDFKGRFAFSLETSASTAYLQINNLKNEDTATYFCATDYGDYFDYWGQGTTLTVSSAKTTAPSVTSGQAGQ
B8 showed an A450 in assay [2] of 1.2 A450.

B9: scFv clone No. 7, displayed on phage (scFv)
scFv: AQAAELDIVLTQSPAIMSASPGEKVTISCSASSSVSYMYWYQQKPGQPPRLLIYLVSNLESGVPARFSGSGSGTDFTLNIHPVEEEDAATYYCQQYHSYPPTFGAGTKLEIKSSGGGGSGGGGGGSSRSSLEVKLVESGPELKKPGETVKISCKASGYTFTDYSMHWVNQAPGKGLKWMGWINTETGEPSYADDFKGRFAFSLETSASTAYLQINNLKNEDTATYFCATDYGDYFDYWGQGTTLTVSSAKTTPPSVTSGQAGQ
The molecule B9 yielded an A450 in assay [2] of 0.9 A450.

B10: scFv clone No. 4, displayed on phage (scFv)
scFv: AQAAELDIVLTQSPAIMSASPGEKVTISCSASSSVGYMYWYQQKPGSSPKPWIYRPSNLASGVPARFSGSGSGTSYSLTISSMEAEDAATYYCQQYHSYPPTFGAGTKLELKSSGGGGSGGGGGGSSRSSLEVKLVESGPELKKPGETVKISCKASGYTFTDYSMHWVNQAPGKGLKWMGWINTETGEPSYADDFKGRFAFSLETSASTAYLQINNLKNEDTATYFCATDYGDYFDYWGQGTTLTVSSAKTTPPSVTSGQ
As for B10, the A450 in assay [2] turned out to be 1 A450.
